According to the Human Domainome abundance scans (Beltran et al. 2025):
± gives the uncertainty stated by the source.

B1: POU domain, class 2, transcription factor 1, residues 285 to 354; numbered along this chain, P14859 (parent)
chain: LEELEQFAKTFKQRRIKLGFTQGDVGLAMGKLYGNDFSQTTISRFEALNLSFKNMCKLKPLLEKWLNDAE

Variants of: B1
Experiment: abundance fitness (aPCA) (normalised: wild type 0, dead -1); higher = more abundant; growth selection in yeast, the domain comes from the species named
Details: Homo sapiens

Question: For LEELSQFAKTFKQRRIKLGFTQGDVGLAMGKLYGNDFSQTTISRFEALNLSFKNMCKLKPLLEKWLNDAE [E5S], which abundance fitness is on record?
Answer: -0.039 ± 0.031

Question: Which abundance fitness does the source give for LEELYQFAKTFKQRRIKLGFTQGDVGLAMGKLYGNDFSQTTISRFEALNLSFKNMCKLKPLLEKWLNDAE [E5Y] here?
Answer: -0.071 ± 0.054

Question: With LEELDQFAKTFKQRRIKLGFTQGDVGLAMGKLYGNDFSQTTISRFEALNLSFKNMCKLKPLLEKWLNDAE [E5D] as the variant, how does the abundance fitness read?
Answer: -0.072 ± 0.05

Question: With LEELCQFAKTFKQRRIKLGFTQGDVGLAMGKLYGNDFSQTTISRFEALNLSFKNMCKLKPLLEKWLNDAE [E5C] as the variant, how does the abundance fitness read?
Answer: -0.114 ± 0.037

Question: Which abundance fitness does the source give for LEELNQFAKTFKQRRIKLGFTQGDVGLAMGKLYGNDFSQTTISRFEALNLSFKNMCKLKPLLEKWLNDAE [E5N] here?
Answer: -0.059 ± 0.059

Question: For LEELLQFAKTFKQRRIKLGFTQGDVGLAMGKLYGNDFSQTTISRFEALNLSFKNMCKLKPLLEKWLNDAE [E5L], which abundance fitness is on record?
Answer: -0.022 ± 0.022

Question: Which abundance fitness does the source give for LEWLEQFAKTFKQRRIKLGFTQGDVGLAMGKLYGNDFSQTTISRFEALNLSFKNMCKLKPLLEKWLNDAE [E3W] here?
Answer: -0.305 ± 0.042

Question: Which abundance fitness does the source give for LESLEQFAKTFKQRRIKLGFTQGDVGLAMGKLYGNDFSQTTISRFEALNLSFKNMCKLKPLLEKWLNDAE [E3S] here?
Answer: -0.105 ± 0.024

Question: Which abundance fitness does the source give for LEMLEQFAKTFKQRRIKLGFTQGDVGLAMGKLYGNDFSQTTISRFEALNLSFKNMCKLKPLLEKWLNDAE [E3M] here?
Answer: -0.089 ± 0.027

Question: For LEVLEQFAKTFKQRRIKLGFTQGDVGLAMGKLYGNDFSQTTISRFEALNLSFKNMCKLKPLLEKWLNDAE [E3V], which abundance fitness is on record?
Answer: -0.118 ± 0.033

Question: With LETLEQFAKTFKQRRIKLGFTQGDVGLAMGKLYGNDFSQTTISRFEALNLSFKNMCKLKPLLEKWLNDAE [E3T] as the variant, how does the abundance fitness read?
Answer: -0.146 ± 0.031

Question: With LEYLEQFAKTFKQRRIKLGFTQGDVGLAMGKLYGNDFSQTTISRFEALNLSFKNMCKLKPLLEKWLNDAE [E3Y] as the variant, how does the abundance fitness read?
Answer: -0.186 ± 0.047

Question: For LEILEQFAKTFKQRRIKLGFTQGDVGLAMGKLYGNDFSQTTISRFEALNLSFKNMCKLKPLLEKWLNDAE [E3I], which abundance fitness is on record?
Answer: -0.117 ± 0.063

Question: With LEQLEQFAKTFKQRRIKLGFTQGDVGLAMGKLYGNDFSQTTISRFEALNLSFKNMCKLKPLLEKWLNDAE [E3Q] as the variant, how does the abundance fitness read?
Answer: -0.078 ± 0.034

Question: For LEALEQFAKTFKQRRIKLGFTQGDVGLAMGKLYGNDFSQTTISRFEALNLSFKNMCKLKPLLEKWLNDAE [E3A], which abundance fitness is on record?
Answer: -0.143 ± 0.05

Question: Which abundance fitness does the source give for LEGLEQFAKTFKQRRIKLGFTQGDVGLAMGKLYGNDFSQTTISRFEALNLSFKNMCKLKPLLEKWLNDAE [E3G] here?
Answer: -0.201 ± 0.063

Question: With LEHLEQFAKTFKQRRIKLGFTQGDVGLAMGKLYGNDFSQTTISRFEALNLSFKNMCKLKPLLEKWLNDAE [E3H] as the variant, how does the abundance fitness read?
Answer: -0.036 ± 0.044

Question: For LENLEQFAKTFKQRRIKLGFTQGDVGLAMGKLYGNDFSQTTISRFEALNLSFKNMCKLKPLLEKWLNDAE [E3N], which abundance fitness is on record?
Answer: -0.07 ± 0.078

Question: Which abundance fitness does the source give for LEFLEQFAKTFKQRRIKLGFTQGDVGLAMGKLYGNDFSQTTISRFEALNLSFKNMCKLKPLLEKWLNDAE [E3F] here?
Answer: -0.159 ± 0.039

Question: For LERLEQFAKTFKQRRIKLGFTQGDVGLAMGKLYGNDFSQTTISRFEALNLSFKNMCKLKPLLEKWLNDAE [E3R], which abundance fitness is on record?
Answer: -0.207 ± 0.036

Question: Which abundance fitness does the source give for LEPLEQFAKTFKQRRIKLGFTQGDVGLAMGKLYGNDFSQTTISRFEALNLSFKNMCKLKPLLEKWLNDAE [E3P] here?
Answer: -0.569 ± 0.043

Question: For LEKLEQFAKTFKQRRIKLGFTQGDVGLAMGKLYGNDFSQTTISRFEALNLSFKNMCKLKPLLEKWLNDAE [E3K], which abundance fitness is on record?
Answer: -0.137 ± 0.035

Question: For LECLEQFAKTFKQRRIKLGFTQGDVGLAMGKLYGNDFSQTTISRFEALNLSFKNMCKLKPLLEKWLNDAE [E3C], which abundance fitness is on record?
Answer: -0.202 ± 0.046

Question: Which abundance fitness does the source give for LEELEQFCKTFKQRRIKLGFTQGDVGLAMGKLYGNDFSQTTISRFEALNLSFKNMCKLKPLLEKWLNDAE [A8C] here?
Answer: -0.05 ± 0.038

Question: Which abundance fitness does the source give for LEELEQFQKTFKQRRIKLGFTQGDVGLAMGKLYGNDFSQTTISRFEALNLSFKNMCKLKPLLEKWLNDAE [A8Q] here?
Answer: -0.283 ± 0.045

Question: With LEELEQFFKTFKQRRIKLGFTQGDVGLAMGKLYGNDFSQTTISRFEALNLSFKNMCKLKPLLEKWLNDAE [A8F] as the variant, how does the abundance fitness read?
Answer: -0.602 ± 0.063

Question: With LEELEQFRKTFKQRRIKLGFTQGDVGLAMGKLYGNDFSQTTISRFEALNLSFKNMCKLKPLLEKWLNDAE [A8R] as the variant, how does the abundance fitness read?
Answer: -0.154 ± 0.021

Question: With LEELEQFNKTFKQRRIKLGFTQGDVGLAMGKLYGNDFSQTTISRFEALNLSFKNMCKLKPLLEKWLNDAE [A8N] as the variant, how does the abundance fitness read?
Answer: -0.625 ± 0.14

Question: With LEELEQFLKTFKQRRIKLGFTQGDVGLAMGKLYGNDFSQTTISRFEALNLSFKNMCKLKPLLEKWLNDAE [A8L] as the variant, how does the abundance fitness read?
Answer: -0.252 ± 0.029

Question: For LEELEQFPKTFKQRRIKLGFTQGDVGLAMGKLYGNDFSQTTISRFEALNLSFKNMCKLKPLLEKWLNDAE [A8P], which abundance fitness is on record?
Answer: -0.447 ± 0.031

Question: For LEELEQFHKTFKQRRIKLGFTQGDVGLAMGKLYGNDFSQTTISRFEALNLSFKNMCKLKPLLEKWLNDAE [A8H], which abundance fitness is on record?
Answer: -0.499 ± 0.064

Question: For LEELEQFDKTFKQRRIKLGFTQGDVGLAMGKLYGNDFSQTTISRFEALNLSFKNMCKLKPLLEKWLNDAE [A8D], which abundance fitness is on record?
Answer: -0.968 ± 0.13

Question: With LEELEQFMKTFKQRRIKLGFTQGDVGLAMGKLYGNDFSQTTISRFEALNLSFKNMCKLKPLLEKWLNDAE [A8M] as the variant, how does the abundance fitness read?
Answer: -0.205 ± 0.042

Question: For LEELEQFKKTFKQRRIKLGFTQGDVGLAMGKLYGNDFSQTTISRFEALNLSFKNMCKLKPLLEKWLNDAE [A8K], which abundance fitness is on record?
Answer: -0.72 ± 0.076

Question: For LEELEQFIKTFKQRRIKLGFTQGDVGLAMGKLYGNDFSQTTISRFEALNLSFKNMCKLKPLLEKWLNDAE [A8I], which abundance fitness is on record?
Answer: -0.008 ± 0.054

Question: For LEEMEQFAKTFKQRRIKLGFTQGDVGLAMGKLYGNDFSQTTISRFEALNLSFKNMCKLKPLLEKWLNDAE [L4M], which abundance fitness is on record?
Answer: -0.022 ± 0.23

Question: Which abundance fitness does the source give for LEESEQFAKTFKQRRIKLGFTQGDVGLAMGKLYGNDFSQTTISRFEALNLSFKNMCKLKPLLEKWLNDAE [L4S] here?
Answer: -0.263 ± 0.21

Question: For LEEVEQFAKTFKQRRIKLGFTQGDVGLAMGKLYGNDFSQTTISRFEALNLSFKNMCKLKPLLEKWLNDAE [L4V], which abundance fitness is on record?
Answer: -0.145 ± 0.14

Question: With LEEFEQFAKTFKQRRIKLGFTQGDVGLAMGKLYGNDFSQTTISRFEALNLSFKNMCKLKPLLEKWLNDAE [L4F] as the variant, how does the abundance fitness read?
Answer: -0.483 ± 0.16
